Experimental data: IntAct's records for PubMed 17805295

Target: Cdh23, Q99PF4-1
Sequence (Q99PF4 whole entry): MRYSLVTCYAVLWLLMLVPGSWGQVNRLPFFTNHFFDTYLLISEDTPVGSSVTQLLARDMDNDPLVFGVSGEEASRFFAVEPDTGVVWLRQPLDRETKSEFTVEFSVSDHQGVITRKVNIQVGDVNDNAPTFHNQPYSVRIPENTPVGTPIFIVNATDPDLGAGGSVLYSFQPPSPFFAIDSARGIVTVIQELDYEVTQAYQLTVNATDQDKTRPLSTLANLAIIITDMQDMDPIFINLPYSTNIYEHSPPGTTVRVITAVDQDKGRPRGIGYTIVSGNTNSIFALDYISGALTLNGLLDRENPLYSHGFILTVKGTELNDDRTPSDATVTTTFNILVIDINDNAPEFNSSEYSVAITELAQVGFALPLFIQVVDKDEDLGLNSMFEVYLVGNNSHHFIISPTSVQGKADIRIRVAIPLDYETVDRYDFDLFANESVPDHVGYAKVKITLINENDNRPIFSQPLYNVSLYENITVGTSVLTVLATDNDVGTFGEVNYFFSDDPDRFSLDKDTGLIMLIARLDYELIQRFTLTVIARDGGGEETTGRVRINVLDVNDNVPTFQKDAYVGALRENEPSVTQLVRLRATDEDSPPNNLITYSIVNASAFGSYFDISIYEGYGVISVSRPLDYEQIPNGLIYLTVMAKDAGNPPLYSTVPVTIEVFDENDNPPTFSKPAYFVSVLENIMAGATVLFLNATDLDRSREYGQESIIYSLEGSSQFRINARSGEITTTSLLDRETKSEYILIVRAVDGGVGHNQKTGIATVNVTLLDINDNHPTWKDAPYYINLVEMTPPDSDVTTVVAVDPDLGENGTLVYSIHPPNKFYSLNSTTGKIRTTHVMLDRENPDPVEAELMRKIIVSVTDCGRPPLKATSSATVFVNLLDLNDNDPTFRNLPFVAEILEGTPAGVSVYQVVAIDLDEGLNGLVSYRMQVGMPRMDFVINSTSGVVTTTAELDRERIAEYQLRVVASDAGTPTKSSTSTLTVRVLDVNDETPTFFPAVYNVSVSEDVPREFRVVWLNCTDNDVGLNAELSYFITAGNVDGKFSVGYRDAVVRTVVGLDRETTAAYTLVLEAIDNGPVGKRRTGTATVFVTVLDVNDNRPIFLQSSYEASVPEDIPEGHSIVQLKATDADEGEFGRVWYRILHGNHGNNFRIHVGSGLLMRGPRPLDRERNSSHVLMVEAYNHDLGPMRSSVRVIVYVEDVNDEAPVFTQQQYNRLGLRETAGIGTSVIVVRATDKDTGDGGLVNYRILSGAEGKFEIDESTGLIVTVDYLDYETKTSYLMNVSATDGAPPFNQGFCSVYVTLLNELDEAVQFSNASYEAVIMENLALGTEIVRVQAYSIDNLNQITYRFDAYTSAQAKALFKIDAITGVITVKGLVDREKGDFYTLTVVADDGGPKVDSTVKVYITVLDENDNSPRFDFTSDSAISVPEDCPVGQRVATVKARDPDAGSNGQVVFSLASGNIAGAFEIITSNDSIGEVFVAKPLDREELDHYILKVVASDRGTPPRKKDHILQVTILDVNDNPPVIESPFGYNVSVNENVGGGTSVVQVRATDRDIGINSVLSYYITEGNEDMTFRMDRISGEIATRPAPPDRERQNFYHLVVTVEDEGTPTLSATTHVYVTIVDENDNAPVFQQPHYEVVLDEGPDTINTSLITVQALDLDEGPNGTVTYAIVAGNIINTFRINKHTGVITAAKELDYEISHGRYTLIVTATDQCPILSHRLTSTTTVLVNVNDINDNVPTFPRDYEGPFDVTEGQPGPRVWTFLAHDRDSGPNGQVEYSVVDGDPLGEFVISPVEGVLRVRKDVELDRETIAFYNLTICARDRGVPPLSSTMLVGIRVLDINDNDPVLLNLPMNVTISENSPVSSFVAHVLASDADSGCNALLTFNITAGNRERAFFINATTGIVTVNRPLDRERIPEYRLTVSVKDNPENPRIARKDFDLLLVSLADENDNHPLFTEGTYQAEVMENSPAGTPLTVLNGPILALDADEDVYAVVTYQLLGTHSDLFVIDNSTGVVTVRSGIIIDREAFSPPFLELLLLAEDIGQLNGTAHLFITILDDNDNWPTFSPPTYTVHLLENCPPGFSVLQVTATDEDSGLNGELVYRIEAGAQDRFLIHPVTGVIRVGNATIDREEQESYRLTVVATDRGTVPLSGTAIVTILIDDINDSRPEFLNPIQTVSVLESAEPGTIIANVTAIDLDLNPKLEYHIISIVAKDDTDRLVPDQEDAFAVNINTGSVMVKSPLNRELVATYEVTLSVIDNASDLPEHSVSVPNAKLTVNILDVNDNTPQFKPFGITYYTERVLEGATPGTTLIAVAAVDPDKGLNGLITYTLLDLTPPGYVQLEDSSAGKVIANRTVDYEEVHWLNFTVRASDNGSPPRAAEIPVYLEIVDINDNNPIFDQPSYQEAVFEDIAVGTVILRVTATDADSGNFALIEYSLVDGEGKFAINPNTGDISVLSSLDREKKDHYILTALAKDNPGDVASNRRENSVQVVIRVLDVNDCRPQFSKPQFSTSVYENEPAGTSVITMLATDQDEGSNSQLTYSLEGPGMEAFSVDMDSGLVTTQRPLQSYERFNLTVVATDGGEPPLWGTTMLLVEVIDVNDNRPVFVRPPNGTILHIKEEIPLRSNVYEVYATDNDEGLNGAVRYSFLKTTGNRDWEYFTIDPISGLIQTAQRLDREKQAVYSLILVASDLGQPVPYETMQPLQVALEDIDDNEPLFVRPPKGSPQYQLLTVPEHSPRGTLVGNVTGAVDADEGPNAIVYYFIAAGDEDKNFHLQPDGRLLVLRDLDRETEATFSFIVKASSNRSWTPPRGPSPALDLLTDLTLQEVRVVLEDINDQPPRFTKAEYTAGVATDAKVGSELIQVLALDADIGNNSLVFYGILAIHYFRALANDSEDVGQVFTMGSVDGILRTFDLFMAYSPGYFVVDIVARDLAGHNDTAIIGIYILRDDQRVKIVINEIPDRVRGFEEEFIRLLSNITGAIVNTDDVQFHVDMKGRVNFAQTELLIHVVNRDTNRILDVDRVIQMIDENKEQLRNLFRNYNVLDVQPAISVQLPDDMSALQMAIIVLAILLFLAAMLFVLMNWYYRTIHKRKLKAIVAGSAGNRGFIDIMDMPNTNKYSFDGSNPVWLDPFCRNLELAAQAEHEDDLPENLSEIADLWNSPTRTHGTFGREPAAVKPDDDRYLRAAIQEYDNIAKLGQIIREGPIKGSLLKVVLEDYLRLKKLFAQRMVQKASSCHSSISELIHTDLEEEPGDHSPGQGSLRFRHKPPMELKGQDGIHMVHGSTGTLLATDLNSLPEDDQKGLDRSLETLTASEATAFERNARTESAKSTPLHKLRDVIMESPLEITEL

Protocadherin-15 (Mus musculus), Q99PJ1 R139G
effect of a mutation on the interaction: disrupting interaction strength
